# Reference: the nanobody polyreactivity screen of Harvey et al. (2022)
# Experiment: yeast display, Sf9 membrane polyspecificity reagent, FACS + sequencing; frameworks hold sequencing errors
# In short: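 Galactose-induced (36–48 hours) yeast carrying a synthetic nanobody display library were exposed to 10% biotinylated, detergent-solubilized Sf9 membrane reagent at 4 °C for 1 hour. FACS followed streptavidin microbead enrichment, using low and high (top ~1%) gates for expression (anti-HA) and reagent binding (streptavidin). Colony PCR, MiSeq 2 × 250 sequencing and CDR-length filtering followed. Labels for polyreactivity reflect the gate of origin.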
row,Sequence,polyreactivity (PSR sort gate)
1,QVQLVESGGGLVQAGGSLRLSCAASGIISYLYAMGCYRQAPGKEREWVAVIRTSDAITYYADSVKGRFTISRDNAKNTVYLQMNSLKPQDTAVYYCAAAGYAWWGEYEYWGQGTLVTVSS,high polyreactivity
2,QVQLVESGGGLVQAGGSLRLSCAASGIISYRYGMGWYRQAPGKEGELVAAISWSGGSTYYADSVKGRFTISRDNAKNTVYLQMNSRKPEDTAVYYCAAYWRQAGVFKIYDYWGQGTQVTVSS,high polyreactivity
3,QVQLVESGGGLVQAGGSLRLSCAASGIIVYYYAMGWYRPAPGKERELVAAISTSGTRTFYADSVKGRFTISRDNAKKTVYLQMNSLKPEDTAVYYCAARIYKPQRCTSLYRTSGYWGQGTQVTVSS,high polyreactivity
4,QVQLVESGGGLVQAGGSLRLSCAASGIIYKYAMGWYRQAPGKERELVAAISSGASTNYADSVKGRFTISRDNAKNTVYLQMNSLKPEDTAVYYCNVTTGASFEFDYWGQGTQVTVSS,low polyreactivity
5,QVQLVESGGGLVQAGGSLRLSCAASGIIYRQNAMGWYRQATRKEREFVAAISSGGNTYYADSVKGRFTISRDNAKNTVYLQMNSLKPEDTGFYYCAADVEDRYHRAWFDYWGQGTKVTVSS,low polyreactivity
6,QVQLVESGGGLVQAGGSLRLSCAASGIIYWVNAMGWYRQAPGKERELVAVINRGTYYADSVKGRFTISRDNAKNTVYLQMNSLKPEDTAVYYRYAYTSTTEYDYWGLGTQVTVSS,low polyreactivity
7,QVQLVESGGGLVQAGGSLRLSCAASGILSNYYAMGWYRQAPGKERELVASIRLSGGRTYYADSVKGRFTISRDNAKNTVYLQMNSLKPEDTAVYYCAAGTRRTYSKFDYWGQGTQVTVSS,high polyreactivity
8,QVQLVESGGGLVQAGGSLRLSCAASGINFCWYAMGWYRQAPGKERELVAAISGTGGSTYYADSVKGRFTISRDNAKNTVYLQMNSLKPEDTAVYYCAARGKSSSYYDYDYCGQGTQVTVSS,low polyreactivity
9,QVQLVESGGGLVQAGGSLRLSCAASGINFDDNTMGWYRQAPGKERELLAAISSSGGSTYYADSVKGRFTISRDNAKNTVYFQMNSLNPEDTAVYYCAAADYYTYPYIVYRNYPEFDYWGQGTQVTVSS,low polyreactivity
10,QVQLVESGGGLVQAGGSLRLSCAASGINFDGNVMGWYRPAPRKEREFFASISISGGSTSYADSVKGRFTISRDNAKNTVYLQMNSLKPEDTAVYYCNTDVCYGRVWRWRFHGDYWGQGTQVTVSS,low polyreactivity
11,QVQLVESGGGLVQAGGSLRLSCAASGINFGRYAMGWYRQAPGKERELVATITVNGGRTYYADSVKGRFTISRDNAKNTVYLQMNSLKPEDTAVYYCNAEVPGHYFDGWYFYDFDYWGQGTQVTVSS,low polyreactivity
12,QVQLVESGGGLVQAGGSLRLSCAASGINFGYYAMGWYRQAPGKERELVAAISRRGGSTYYADSVKGRFTISRDNAKNTVYLQMNSLKPEDTAVYYCYKRRAAGGFPYVYWGQGTQVTVSS,high polyreactivity
13,QVQLVESGGGLVQAGGSLRLSCAASGINFIYNAMGWYRQAPGKERELVATISRRGGSTYYADSVKGRFTISRDNAKNTVYLQMNSLKPEVTAVYYSARDVGAGSKISRLSSYNYWGQGTQVTVSS,low polyreactivity
14,QVQLVESGGGLVQAGGSLRLSCAASGINFNKYAMGWYRQAPGKEREFVAAITYRGGSTYYADSVKGRFTISRDNAKNTVYFQMNSLKPEDTAVYYCAARRITTYYYWGQGTQVTVSS,high polyreactivity
15,QVQLVESGGGLVQAGGSLRLSCAASGINFVYYAKGWYRPAAGKERELVAGITVNGGNTYYADSVKGRFTLSRDNAKNTVYLQMNSLKPEDTAVYYCNADYYWVLGVFDYWGHGTQVTVSS,low polyreactivity
16,QVQLVESGGGLVQAGGSLRLSCAASGINFYAYAMGWYRKAPGKERELVAAITFSAVSTYYADSVKGRFTISRDNAKNSVYLQMNSLKPEDTAVYYCAAEAYKQGVWDYDYWGQGTQVTVSS,low polyreactivity
17,QVQLVESGGGLVQAGGSLRLSCAASGISFNSYTMGGYRQAPGKERELVAAITASGGTTRYADSVKGRFTISRDNAKNTVYLQMNSLKPEYTAVYYCNALPFRYGKRRGYWGQGTQVTVSS,low polyreactivity
18,QVQLVESGGGLVQAGGSLRLSCAASGISFYSYTMGWYIQAPGKERELVAAIRGSDGSTYYADSVKGRFTLSRDNAKNTVYLQMNSLKPEVTAVYYCNRKFYWRRDYWGQGTQVTVSS,high polyreactivity
19,QVQLVESGGGLVQAGGSLRLSCAASGITCTFNTMGWYRQAPGKERELVAGITNGGSTYYADSVKGRFTISRDNAKNTVYLQMNSLKPEDTAVYYCNAQRRLRYGWFGPYDYWGQGTQVTVSS,low polyreactivity
20,QVQLVESGGGLVQAGGSLRLSCAASGITFAFYDKGWYRQPPGKERELVAAISYSGGGTYYADSVKGRFTISRDNAKNNVYLQMNSLKPEDTAVYYCAADPKTHPLFGEDYWGQGTQVTVSS,low polyreactivity
21,QVQLVESGGGLVQAGGSLRLSCAASGITFALNAMGWYRQAPGKERELVAAISWSGDSTYYADSVKGRFTISRDNAKNTVYLQMNSLKPEDTAVYYCAAVAYLNWTPHYYWGQGTQVTVSS,low polyreactivity
22,QVQLVESGGGLVQAGGSLRLSCAASGITFANYAVGWYRQAPGKERELVAAISTSGGSTYYADSVKGRFTISRDNAKNTVDLQMNSLKPEDTAVYYCAARPYPWANFGYWGQGTQVTVSS,high polyreactivity
23,QVQLVESGGGLVQAGGSLRLSCAASGITFAPYAMGWYRQAPGKEREFVAGISWSGTTTYYADSVKGRFTISRDNAKNTVYLQMNSLKPEDTAVYYCATDYFNYGYFDFRWYYYWGQGTQVTVSS,high polyreactivity
24,QVQLVESGGGLVQAGGSLRLSCAASGITFARYAMGLYIQAPGKERELVAAISKRGGRKYYADSVKGRFTISRDNAKNTVYLQMNSLKPEDTAVYYCATDYYVSTDYNLWGQGTQVTVSS,high polyreactivity
25,QVQLVESGGGLVQAGGSLRLSCAASGITFAYYAKAWYRQAPGKERELVAAINWSGGSTYYADSVKGRFTISRDNAKNTVYLQMNSLKPEDTAVYYCNAVPRRGYSRRDYWGQGTQVTVSS,high polyreactivity
26,QVQLVESGGGLVQAGGSLRLSCAASGITFCDNTMGWYRQAPGKERELVAAITYSSTSTYYADSVKGRFTISRDNAKNTVYLQMNSLKTEDTAVYYCAAEGPGDVVSTDYDFWGQGTQVTVSS,low polyreactivity
27,QVQLVESGGGLVQAGGSLRLSCAASGITFCSYTMGWYRQAPGKERELVAVISSGGSTNYADSVKGRFTISRDNAKNTVYLQMNSLKPEDTAVYYCAADFRWWYTGFDYWGQGTQVTVSS,high polyreactivity
28,QVQLVESGGGLVQAGGSLRLSCAASGITFCYYVMGWYRQAPGKERELVAAISSGSSTYYADSVKGRFTISRDNAKNTVYLQMNSLKPEDTAVYYCAAESVYWLEFRYYYWGQGTQVTVSS,low polyreactivity
29,QVQLVESGGGLVQAGGSLRLSCAASGITFDDNAMGWYRQAPGKERELVATISDGGRTYYADSVKGRFTISRDNAKNTVYLQMNSLKPEDTAVYYCAAGYPYYHVYGYGYWGQGTQVTVSS,low polyreactivity
30,QVQLVESGGGLVQAGGSLRLSCAASGITFDDYVMGWYRQAPGKERELVAAITRSGGRTYYADSVKGRFTISRDNAKNTVDLQMNSLKPEVTAVYYCAARHRDNRFDYWGQGTQVTVSS,high polyreactivity
